# Test results as given in the supplement of paper PMC12042874.
# ± gives the uncertainty stated by the source.
# Experiment: amyloid nucleation score (Sup35N fusion, yeast selection) (log enrichment); library NNK3; higher = more nucleation; inactive = no reads after selection
# How it was run: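 The nucleation score is the DiMSum log enrichment of output over input reads, centred on the mode score of non-aggregating sequences. Only sequences with 100 or more input reads were scored, using Illumina sequencing of input and output plasmid inserts. Psi-negative yeast expressing Sup35N fused to peptides of 20 random codons were induced 24 hours with 100 μM copper sulfate and grown 7 days at 30°C on medium lacking adenine and uracil.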
row,Substance,amyloid nucleation score
1,TSLLINVVLMVNRPGCP,1.67 ± 0.061
2,VYQTFYAIV,inactive
3,WNPFGRGWLTLPNMFHKTVI,inactive
4,KRFTGSK,inactive
5,FSFYFQDNTIKRWEAIED,inactive
6,DGLQSN,inactive
7,HDLAGQFISV,inactive
8,VSSSSEVHCYSSFMYISKSP,0.824 ± 0.16
9,VSGQKVSCMDE,inactive
10,LLDENGGHYSSIRAISDGGI,inactive
11,GSVGFIIKGWWSTE,0.621 ± 0.26
12,SKYKVCFTRSFF,inactive
13,AVMWYIPRDG,inactive
14,LGCSVTTVSV,inactive
15,RMHDSCFLYGISEDRDSLGN,inactive
16,PVSII,inactive
17,LTFCVSMKCKIW,inactive
18,SEYFWLVWPSA,inactive
19,IKKQYINSFIDSATMKGIKV,inactive
20,GWMYTCRDAHYLDGWRLVHD,inactive
21,ILLGIEAPCVSITYYFKTFL,1.32 ± 0.13
22,LIYANEYA,inactive
23,GNVSCHFILGQRVHFPSCDF,0.809 ± 0.29
24,KSMYWLYCTEWEHSNMHVFM,0.17 ± 0.68

row,Substance,amyloid nucleation score
1,YISLISCMGKVNY,2.31 ± 0.089
2,RRGIWDSVKMEKFL,inactive
3,RCELCMSIKGLAVNNIR,1.9 ± 0.1
4,RLMDITL,inactive
5,DASSDRVSVYSAYK,inactive
6,YLIAIG,inactive
7,ANGLLSFSGRADGLQTNSGC,inactive
8,LVICKNINKLISWLSDYSFA,inactive
9,GCNHC,inactive
10,SDFAIWKDFDG,1.21 ± 0.1
11,RVRRLT,inactive
12,YDRVSMGRFIKR,inactive
13,TAQTNPGVYYS,inactive
14,IYSSCPFNLTSRMVGF,inactive
15,VCWSHKCRVDVS,inactive
16,FGSLPRQIMCMPA,inactive
17,MVLCSKGIVNSARLAFKKSR,inactive
18,ETAGMGTPSVRAHGLASGSV,-0.672 ± 1.8
19,MRNGCCNACKILLDIRLFL,1.96 ± 0.059
20,KCLKCKTGLCTMQGEYNRSY,-0.475 ± 0.88
21,YISHWASGSFIVNYIERWMR,0.707 ± 0.29
22,RHSLQMVRGTHSLCLWYNWV,inactive
23,QTAFQRL,inactive
24,VHSPWVNNLYQCWTYYFLLL,0.162 ± 0.88

row,Substance,amyloid nucleation score
1,RKAYATYATDRLISSDYG,inactive
2,LSKFFRWV,inactive
3,NDKLWQWMGNISVRCFFINV,inactive
4,FSSNTT,inactive
5,SMYIIMVCSSVSCWYFNRGH,0.94 ± 0.18
6,DLDIRIFMVHDPAYCSLCSF,inactive
7,TFHSM,inactive
8,IVYWCLVRNLEKLCCSYFTG,inactive
9,WDYKAGISSSLSAIGCLYGD,inactive
10,SLEIEK,inactive
11,NLVTVLIISRWGAGLR,1.17 ± 0.17
12,LNCQYTFHAKCSFLHPSLL,0.928 ± 0.21
13,CVSNLLTTYNNAFRFAHMVS,inactive
14,MYLVG,inactive
15,VLMSYQVCV,inactive
16,YWKRAGPQFGVPDSWTPSGP,inactive
17,SLPACKSGVKNTYVLYLTWN,1.19 ± 0.11
18,HSWNKCDVYAWGLCTFISWC,0.987 ± 0.096
19,GKYCLNDSCPFHY,inactive
20,LGNIGVELVDRCDRYIYQPD,0.627 ± 0.2
21,NVTTVFNKIPLPDSFNMRRW,1.28 ± 0.084
22,YCETLTRY,inactive
23,WTRVFLRTKGRSEFLLRWPL,inactive
24,MDIRERRRFFSNIRRVRYLK,inactive

row,Substance,amyloid nucleation score
1,CRISSPAGVNLLDSSRLSRL,inactive
2,AFKDNNDCLEHCCRRVTDLV,inactive
3,RHGLCFTIEAVPPPFIRWHW,-0.662 ± 1.3
4,VIVYLFICNADLYFYKMSDF,1.72 ± 0.12
5,AVWTCIGWDERTKMLYKFIR,inactive
6,YLVSY,inactive
7,CPESCSN,inactive
8,FYIKVVNPCIPYT,inactive
9,ISWTYVRYYGHKKCCLFYHF,inactive
10,FLQECRDCQGTVRNKSSAP,inactive
11,VFSNGSRDAWSFFNQKSNRF,0.193 ± 0.21
12,LLRSCYVSYALNGYSTTFRD,inactive
13,HLWHSVWYALRDSPSLGFFI,inactive
14,TFFFVVGHSNDEVYSCVKTV,1.12 ± 0.11
15,WSNSCYEC,inactive
16,FMYSFDLWYKRLNCLMMLVF,inactive
17,FFLAFKEQPRAYLISISTH,inactive
18,QSPSSKAK,inactive
19,TCCSVLLIKVSSNEGD,2.6 ± 0.078
20,NCNVPRSHGGGFLTYTLMRE,inactive
21,HTLRWE,inactive
22,NMTVGHILFLMMTCAMYVNN,inactive
23,IHPPSGYPGSGLSLCCSKNS,inactive
24,FKSSVKGEGYGKMGFQLLPF,inactive

row,Substance,amyloid nucleation score
1,LCMAFNVIPQTSFLALKASC,inactive
2,GCCFLVILWMKYDCYLGDQV,inactive
3,DLNIVIPRIRAHRA,inactive
4,GQPTICKDGYSMLLNEFSRS,inactive
5,YYCTM,inactive
6,CVYGKYLFLVIPEDEPTLYV,0.439 ± 0.31
7,LVNGTFNFSDHAESESCSHS,inactive
8,YALVVR,inactive
9,LDGMYHTVRICNSCF,inactive
10,QTIRTMKRGNRISCVPAGHS,inactive
11,AHVALR,inactive
12,IHYRANRCRRYCAFIYKAN,inactive
13,NVANRGLLHMELSVNKDWAM,0.699 ± 0.16
14,TVRASFGYNLRNWCSTVVVE,inactive
15,GSPQVSAAGQF,inactive
16,GAGCNVVAAATARSRDGDWS,0.212 ± 0.93
17,FFFRLDCRLYS,inactive
18,VRCVVGITVFGIHERVTSER,0.169 ± 0.61
19,VNWHNIKVTEDVKVG,inactive
20,MLDCF,inactive
21,CMTLYLLSLSC,inactive
22,GLNMPLSFSPKRRHFVREWK,inactive
23,CPTPGWTLKRVGRVYECRG,inactive
24,IMGALLTYSRTTGRVNYRMW,inactive

row,Substance,amyloid nucleation score
1,RNMNLLSMHIGLISLFSGEL,1.81 ± 0.056
2,SKIFSCYVVLKSMLTDPGVA,inactive
3,FSYCDGRLLSSNRYYSESLY,inactive
4,GIMVSWIVGFMLCSILRMGD,inactive
5,CNYCGPEAFGILFDYWTMSY,inactive
6,VDVVLGMSIG,inactive
7,VENVDYFCDFGTISIL,1.66 ± 0.087
8,SADQSCYSPHFGGQRDRRWL,inactive
9,LSGSLTTISIITGGVDCD,inactive
10,WFERCLCLLTTRIKYLFSAD,inactive
11,FFFTATLNQLSYTYIFSKLA,inactive
12,NLLDYTVIVNSLSFVDSKSS,inactive
13,FSSSPR,inactive
14,EVPLDVAVKGRLW,inactive
15,RYLYTRNLDMTRTL,inactive
16,LFILFSNGYTVGYNSDNRSF,0.601 ± 0.22
17,IFILTMSDWVFL,1.91 ± 0.062
18,CYVIILVRL,inactive
19,TVTGIMSKYANTSFRN,inactive
20,RVQWALLSIKGHCS,0.645 ± 0.24
21,IDLFRSFSLAVLVVYMSEDW,inactive
22,VTSPFTPSI,-0.336 ± 0.63
23,RQSALRWFSNDNWGICKAHD,-0.06 ± 0.87
24,CEGMKCYVVLTRLRLKKTRT,inactive

row,Substance,amyloid nucleation score
1,LVYNLNRKRGCKGVPVLRYS,inactive
2,MQMMGNEILRFFFVSVLNIN,inactive
3,ASLRWVLRLCRNLHTSSMET,-0.824 ± 1.5
4,VMHMWCHQGRVWFSTSGFLG,0.35 ± 0.19
5,ESTGMPTALYSLAVTVRVDK,0.016 ± 0.33
6,LLDFVNGFYCFDFTGTFNIY,0.993 ± 0.15
7,NWVQKRPGQRHFNIASNCV,inactive
8,ILRPPKAA,inactive
9,GHIKWGNCSSYVSGFKLTCG,inactive
10,MAYLNLVQV,inactive
11,RSMSSGAICSMSY,inactive
12,YSCLLIYVKYGMASIYGRMF,inactive
13,AGQFPREQ,inactive
14,TSTSAYILGPVTQ,inactive
15,TGSNRSYIFFCWSRFNVMFG,-0.002 ± 0.9
16,HCFVANGFLD,inactive
17,IKWEQRLVVYIAYKKHRWQR,inactive
18,YKWARYVFTTDNYFWVPAGY,inactive
19,ERNFPGLFIQLVHLQPEARM,0.631 ± 0.34
